Experimental data as given in the supplement of paper PMC9112550, “Optimization of the antimicrobial peptide Bac7 by deep mutational scanning” (BMC Biology, 2022).

Each sequence was assayed on Escherichia coli TOP10 (assay: shrunken log2 fold change of peptide-encoding DNA abundance (4.5 h post-induction vs induction); higher = less antimicrobial activity (less host growth inhibition)). Conditions: time post-induction: 4.5 h; library: site-saturation at positions 5, 18, 19, 20.
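Note: peptides expressed intracellularly from a pBAD plasmid library in pooled LB shake-flask culture, induced with 0.3% L-arabinose, DNA abundance read by NGS, three biological replicates, DESeq2 with apeglm shrinkage.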

Row | Sequence | shrunken log2 fold change
1 | RRIRSRPPRLPRPRPRPEIVPRP | 0.412
2 | RRIRERPPRLPRPRPRPCRSPRP | -0.0928
3 | RRIRHRPPRLPRPRPRPEKIPRP | 0.0327
4 | RRIRLRPPRLPRPRPRPCLIPRP | -0.0321
5 | RRIRLRPPRLPRPRPRPRTRPRP | 0.519
6 | RRIRYRPPRLPRPRPRPPCTPRP | -0.33
7 | RRIRCRPPRLPRPRPRPIQHPRP | -1.21
8 | RRIRLRPPRLPRPRPRPKYRPRP | 0.0356
9 | RRIRNRPPRLPRPRPRPLTDPRP | -0.193
10 | RRIRVRPPRLPRPRPRPCMSPRP | -0.0664
11 | RRIRPRPPRLPRPRPRPCQCPRP | -0.0627
12 | RRIRMRPPRLPRPRPRPNNRPRP | -0.0376
13 | RRIRFRPPRLPRPRPRPNTHPRP | -0.579
14 | RRIRNRPPRLPRPRPRPLRLPRP | 0.357
15 | RRIRHRPPRLPRPRPRPIWRPRP | 0.139
16 | RRIRMRPPRLPRPRPRPCKRPRP | 0.00656
17 | RRIRNRPPRLPRPRPRPCNLPRP | -0.134
18 | RRIRKRPPRLPRPRPRPFIDPRP | 0.0226
19 | RRIRCRPPRLPRPRPRPVDGPRP | 0.0228
20 | RRIRPRPPRLPRPRPRPKMGPRP | -0.0348
21 | RRIRHRPPRLPRPRPRPVQFPRP | -0.335
22 | RRIRQRPPRLPRPRPRPFRTPRP | -0.255
23 | RRIRNRPPRLPRPRPRPARNPRP | -0.0209
24 | RRIRFRPPRLPRPRPRPSVAPRP | 0.882
25 | RRIRQRPPRLPRPRPRPVRFPRP | 0.728

Row | Sequence | shrunken log2 fold change
26 | RRIRQRPPRLPRPRPRPQNVPRP | -0.0161
27 | RRIRERPPRLPRPRPRPDYTPRP | -1.01
28 | RRIRLRPPRLPRPRPRPLMTPRP | -0.344
29 | RRIRGRPPRLPRPRPRPWDLPRP | -0.0503
30 | RRIRERPPRLPRPRPRPIVQPRP | -0.311
31 | RRIRVRPPRLPRPRPRPLLSPRP | -0.08
32 | RRIRIRPPRLPRPRPRPMLVPRP | 0.0625
33 | RRIRRRPPRLPRPRPRPANMPRP | -0.0342
34 | RRIRQRPPRLPRPRPRPCYHPRP | -0.947
35 | RRIRVRPPRLPRPRPRPVYYPRP | -0.696
36 | RRIRRRPPRLPRPRPRPPHCPRP | 1.08
37 | RRIRWRPPRLPRPRPRPNGNPRP | 0.0106
38 | RRIRTRPPRLPRPRPRPYTCPRP | -0.0764
39 | RRIRVRPPRLPRPRPRPVYNPRP | -0.738
40 | RRIRSRPPRLPRPRPRPADTPRP | -0.0432
41 | RRIRHRPPRLPRPRPRPRFVPRP | -0.0283
42 | RRIRSRPPRLPRPRPRPIMMPRP | -0.0828
43 | RRIRDRPPRLPRPRPRPAWDPRP | 0.4
44 | RRIRERPPRLPRPRPRPIFYPRP | -0.385
45 | RRIRYRPPRLPRPRPRPAFKPRP | -0.145
46 | RRIRYRPPRLPRPRPRPHSMPRP | -0.0542
47 | RRIRVRPPRLPRPRPRPFTAPRP | -0.317
48 | RRIRWRPPRLPRPRPRPAGEPRP | 0.432
49 | RRIRERPPRLPRPRPRPFKFPRP | -0.0774
50 | RRIRKRPPRLPRPRPRPLFWPRP | 0.593

Row | Sequence | shrunken log2 fold change
51 | RRIRFRPPRLPRPRPRPQQFPRP | 0.0682
52 | RRIRGRPPRLPRPRPRPAFVPRP | 0.373
53 | RRIRGRPPRLPRPRPRPKFLPRP | 0.267
54 | RRIRARPPRLPRPRPRPCGFPRP | 0.111
55 | RRIRKRPPRLPRPRPRPHVMPRP | 0.0754
56 | RRIRARPPRLPRPRPRPAKCPRP | -6.11e-05
57 | RRIRMRPPRLPRPRPRPFTVPRP | -0.00884
58 | RRIRHRPPRLPRPRPRPMSGPRP | -0.0285
59 | RRIRYRPPRLPRPRPRPYTCPRP | -0.00145
60 | RRIRKRPPRLPRPRPRPGDMPRP | 0.277
61 | RRIRSRPPRLPRPRPRPKKHPRP | -0.0966
62 | RRIRYRPPRLPRPRPRPKYAPRP | -0.532
63 | RRIRLRPPRLPRPRPRPISWPRP | 0.0554
64 | RRIRFRPPRLPRPRPRPDFGPRP | 0.0422
65 | RRIRNRPPRLPRPRPRPGKMPRP | -0.203
66 | RRIRYRPPRLPRPRPRPDHWPRP | -0.166
67 | RRIRFRPPRLPRPRPRPVWAPRP | 0.137
68 | RRIRERPPRLPRPRPRPFGHPRP | -0.224
69 | RRIRNRPPRLPRPRPRPIGTPRP | 0.000741
70 | RRIRLRPPRLPRPRPRPVTIPRP | 0.0221
71 | RRIRCRPPRLPRPRPRPHTIPRP | -0.38
72 | RRIRTRPPRLPRPRPRPKQRPRP | 0.166
73 | RRIRNRPPRLPRPRPRPLSWPRP | 0.235
74 | RRIRHRPPRLPRPRPRPGREPRP | 0.0529
75 | RRIRCRPPRLPRPRPRPCGCPRP | -0.0301

Row | Sequence | shrunken log2 fold change
76 | RRIRERPPRLPRPRPRPHEIPRP | -0.0168
77 | RRIRGRPPRLPRPRPRPDVWPRP | 1.36
78 | RRIRPRPPRLPRPRPRPTKNPRP | 0.0886
79 | RRIRSRPPRLPRPRPRPWRLPRP | 0.0899
80 | RRIRYRPPRLPRPRPRPTTTPRP | -0.00235
81 | RRIRPRPPRLPRPRPRPCPAPRP | -0.0349
82 | RRIRERPPRLPRPRPRPKDFPRP | -0.00088
83 | RRIRQRPPRLPRPRPRPFSSPRP | -0.0951
84 | RRIRARPPRLPRPRPRPQGPPRP | -0.0931
85 | RRIRTRPPRLPRPRPRPRCTPRP | -0.00178
86 | RRIRLRPPRLPRPRPRPDWGPRP | 0.222
87 | RRIRSRPPRLPRPRPRPIERPRP | -0.23
88 | RRIRYRPPRLPRPRPRPHHKPRP | -0.319
89 | RRIRWRPPRLPRPRPRPQSRPRP | 0.299
90 | RRIRIRPPRLPRPRPRPGSWPRP | 0.227
91 | RRIRGRPPRLPRPRPRPHPMPRP | 0.497
92 | RRIRTRPPRLPRPRPRPPDFPRP | 0.0547
93 | RRIRDRPPRLPRPRPRPLHQPRP | 0.302
94 | RRIRPRPPRLPRPRPRPRSMPRP | 0.0858
95 | RRIRPRPPRLPRPRPRPFWPPRP | 0.199
96 | RRIRKRPPRLPRPRPRPCNTPRP | -0.113
97 | RRIRNRPPRLPRPRPRPMACPRP | -0.109
98 | RRIRGRPPRLPRPRPRPPQRPRP | 0.97
99 | RRIRCRPPRLPRPRPRPRMTPRP | 0.296
100 | RRIRCRPPRLPRPRPRPGSAPRP | 0.148

Row | Sequence | shrunken log2 fold change
101 | RRIRCRPPRLPRPRPRPDPMPRP | 0.00263
102 | RRIRLRPPRLPRPRPRPVLTPRP | -0.198
103 | RRIRTRPPRLPRPRPRPGPLPRP | 0.185
104 | RRIRTRPPRLPRPRPRPTQPPRP | 0.176
105 | RRIRNRPPRLPRPRPRPTPPPRP | 0.49
106 | RRIRERPPRLPRPRPRPELYPRP | -0.0287
107 | RRIRHRPPRLPRPRPRPPRIPRP | 0.0175
108 | RRIRYRPPRLPRPRPRPKIWPRP | -0.475
109 | RRIRHRPPRLPRPRPRPLPFPRP | -0.73
110 | RRIRCRPPRLPRPRPRPIIWPRP | -0.178
111 | RRIRSRPPRLPRPRPRPIDDPRP | -0.00277
112 | RRIRLRPPRLPRPRPRPDFHPRP | -0.206
113 | RRIRRRPPRLPRPRPRPAKHPRP | 0.219
114 | RRIRRRPPRLPRPRPRPDYCPRP | -0.214
115 | RRIRRRPPRLPRPRPRPQGVPRP | -0.159
116 | RRIRIRPPRLPRPRPRPEQCPRP | -0.122
117 | RRIRYRPPRLPRPRPRPWYWPRP | -0.0383
118 | RRIRWRPPRLPRPRPRPCYLPRP | -0.33
119 | RRIRARPPRLPRPRPRPWWKPRP | -0.00149
120 | RRIRQRPPRLPRPRPRPRMNPRP | -0.15
121 | RRIRLRPPRLPRPRPRPYYCPRP | -0.223
122 | RRIRQRPPRLPRPRPRPIRMPRP | -0.291
123 | RRIRERPPRLPRPRPRPPKNPRP | 0.284
124 | RRIRKRPPRLPRPRPRPRPVPRP | 0.732
125 | RRIRNRPPRLPRPRPRPCHLPRP | -0.146
